We go through 1 molecule from US10391180B2, “Self-assembling complex for targeting chemical agents to cells” (CEDARS-SINAI MEDICAL CENTER, priority 2007, dated 2019).

The nature of data set [1]: HerDox stability under different storage temperatures. It is filed as physicochemical. The settings on record: up to 12 days. As to the method: (§1) FIGS. 6 (A)-(B) illustrates conjugate stability under different storage conditions, or in serum. As illustrated in FIG. 6 (A), HerDox was incubated up to 12 days at 4° C., RT, or 37° C. Samples were filtered through ultrafiltration spin columns every other day, and retentate and filtrate absorbances measured at 480 nm to determine relative Dox retention or release from conjugates, respectively. As illustrated in FIG. 6 (B), to mimic extended exposure to cells in culture medium, HerDox immobilized on Ni-NTA beads were incubated with bovine serum in DMEM for the indicated times at 37° C. before each sample was pelleted. Absorbance of supernatants (Filtrates) and bead eluates (Retentates) were measured at 480 nm to detect Dox. Relative Dox release or retention in serum is expressed as normalized to control (corresponding sample lacking serum). N=3 per time point.
(§2) The inventors tested the stability of HerDox over 12 days under different storage temperatures: 4° C., room temperature, or 37° C. On each day, a sample underwent ultrafiltration, then filtrates and retentates were measured to determine whether any Dox was released from the complex. […] The inventors also examined HerDox stability in serum-containing media at 37° C. […] Dox retention in the conjugate was also assessed by eluting the conjugate from the beads at each time point.

Data set [2] in a line: HerDox stability in serum-containing media at 37° C (Ni beads). The format is in vitro ADME. Conditions: 10% fetal bovine serum media. As for the experimental part: as §1, §2
The test system of data set [3] is MDA-MB-231 (HER2−) cells. The experiment in a line: Targeted toxicity, MTT assay, separate dishes. The settings on record: HerDox/Dox 0.5 uM Dox; HerPBK10 0.1 uM; day 3. It is filed as cell-based. As for the experimental part:
FIG. 7 illustrates targeted toxicity. Each cell line was exposed to HerDox (0.5 uM Dox cone), Dox alone (0.5 uM), or HerPBK10 alone for 4 h at 37° C. in complete (i.e. serum-containing) media, followed by aspiration to remove free conjugate, and addition of fresh medium while cells are grown continuously. Cell titer was determined by metabolic (i.e. MTT) assay. FIG. 7 upper panel illustrates the effect of HerDox on MDA-MB-231 (HER2−) and MDA-MB-435 (HER2+) cell survival. Relative surviving cell numbers are represented as a % of corresponding untreated cells. FIG. 7 lower panel illustrates comparison of HerDox, Dox alone, or HerPBK10 alone on HER2− and HER2+ cell survival. Relative survival (as % of untreated cells) is shown for Day 3 of treatment.
The inventors compared the effect of HerDox or Dox alone at equivalent dosages (0.5 uM with respect to Dox concentration) on HER2+ and HER2− breast cancer cells in separate dishes. By three days, HerDox reduced HER2+ cell numbers by over 75% whereas HER2− cell survival was unaffected (FIG. 7). […] These findings emphasize the importance of targeting by showing that the untargeted drug affects nontarget (i.e. HER2−) cells. Importantly, the protein carrier, HerPBK10, alone at the equivalent concentration of protein in HerDox (0.1 uM) had no effect on either cell line (FIG. 7), including a lack of proliferation induction. To test receptor targeting, the inventors used free heregulin ligand (Her or eHRG) as a competitive inhibitor. […] As a final in vitro challenge, the inventors tested whether HerDox induces toxicity specifically to HER2+ cells in a mixed culture of HER2+ and HER2− breast cancer cells. To do this, the inventors produced a HER2− cell line tagged with green fluorescent protein (GFP) for cell identification in the mixed culture (FIG. 9 (A)). […] Altogether, these findings indicate that HerDox has the capacity to preferentially target toxicity to HER2+ cells. […] Moreover, the preferential cell killing of HER2+ cells in a mixed culture of HER2+ and HER2− cells implies that after death and lysis of the target cells, the Dox released into those cells is incapable of continuing to induce toxicity to HER2− cells. To further confirm the stability of HerDox in cell culture, HerDox was recovered from culture media in separate experiments at indicated time points and electrophoresed on an agarose gel, which was then illuminated by UV to detect Dox and stained with Coomassie blue to detect HerPBK10 protein (FIG. 9 (C)). […] Co-migration of HerPBK10 bands further verified that the conjugates remained intact in the cell media.
In general terms: Formazan colour is commonly taken as a measure of viable cells.

The nature of data set [4]: Stability in mouse whole blood. It is filed as in vitro ADME. Conditions: 0.12 mg/mL Dox conc, 37° C. up to 1 h, 0.5 mM EDTA. As to the method: FIG. 13 illustrates stability in mouse whole blood. Freshly collected whole blood was processed by ultrafiltration through 10K MW cutoff membranes after up to 1 h incubation with HerDox or Dox at 37° C. As 0.5 mM EDTA was used as an anticoagulant, HerDox in EDTA alone (-blood) was processed in parallel. Bars represent fluorescence of retained (retentates) or released (filtrates) Dox as a percentage of the total fluorescence of each sample. Scale of Y-axis is adjusted to show presence of filtrate samples. N=3 per treatment.
To assess the feasibility of measuring in vivo stability, the inventors incubated HerDox (at 0.12 mg/mL final Dox conc) or free Dox at equivalent concentration in freshly collected whole blood from mice and incubated the mixtures at 37° C. up to 1 h. As the anticoagulant, 0.5 mM EDTA, was present in the blood collection, parallel samples were incubated at 37° C. in EDTA alone. Samples representing input HerDox (before incubation in blood) were incubated at 37° C. in HEPES-buffered saline. All samples were then centrifuged through 10K MW cutoff filters and Dox fluorescence measured in retentates and filtrates (SpectraMax M2 from Molecular Devices). […] Likewise, there is no appreciable loss of Dox from HerDox retentates from samples incubated in blood compared to those incubated in saline or EDTA alone (FIG. 13).

B1: HerDox: non-covalent complex of HerPBK10, a small double-stranded nucleic acid and intercalated Dox (conjugate)
chain: LPPRLKEMKSQESAAGSKLVLRCETSSEYSSLRFKWFKNGNELNRKNKPQNIKIQKKPGKSELRINKASLADSGEYMCKVISKLGNDSASANITIVESNEIITGMPASTEGAYVSSESPIRISVSTEGANTSSSTSTSTTGTSHLVKCAEKEKTFCVNGGECFMVKDLSNPSRYLCKCQPGFTGARCTENVPMKVQNQEKAEELYMRRAAMYEEGPPPSYESVVSAAPVAAALGSPFDAPLDPPFVPPRYLRPTGGRNSIRYSELAPLFDTTRVYLVDNKSTDVASLNYQNDHSNFLTTVIQNNDYSPGEASTQTINLDDRSHWGGDLKTILHTNMPNVNEFMFTNKFKARVMVSRLPTKDNQVELKYEWVEFTLPEGNYSETMTIDLMNNAIVEHYLKVGRQNGVLESDIGVKFDTRNFRLGFDPVTGLVMPGVYTNEAFHPDIILLPGCGVDFTHSRLSNLLGIRKRQPFQEGFRITYDDLEGGNIPALLDVDAYQASLKDDTEQGGGGAGGSNSSGSGAEENSNAAAAAMQPVEDMNDHAIRGDTFATRAEEKRAEAEAAAEAAAPAAQPEVEKPQKKPVIKPLTEDSKKRSYNLISNDSTFTQYRSWYLAYNYGDPQTGIRSWTLLCTPDVTCGSEQVYWSLPDMMQDPVTFRSTRQISNFPVVGAELLPVHSKSFYNDQAVYSQLIRQFTSLTHVFNRFPENQILARPPAPTITTVSENVPALTDHGTLPLRNSIGGVQRVTITDARRRTCPYVYKALGIVSPRVLSSRTFKKKKKKKKKK
modifications: left off: small tags and cut ends
notes: non-covalent complex of HerPBK10, a small double-stranded nucleic acid and intercalated Dox
Consider B1, for which the product remaining intact in data set [1] (4° C.) is recorded as 100%. Further, the “effect of storage on Dox incorporation” value in data set [1] (room temperature and 37° C.) was “enhance the incorporation of the drug”. For the same molecule, the “release of Dox from the conjugate in serum” value in data set [2] is reported as “no significant release of Dox”. Further, in data set [2] (each time point), the “Dox retention by the conjugate in serum” value was “completely retained”. Moreover, the “effect on HER2− cell survival” value in data set [3] is listed as “unaffected”. Besides, the “loss of Dox from the conjugate in whole blood” value in data set [4] is listed as “no detectable loss of Dox”.
